In the Immune Epitope Database (IEDB) one finds Kd data, which are given here for 32 sequences.

A value given as a limit tells only on which side of the number the result lay.

One experiment has as its target HLA-A*68:02. Description: IEDB peptide-MHC binding, purified MHC/competitive/radioactivity; filed as Kd, often an IC50 or EC50 that approximates it; ≥ and ≤ were set here for values at or beyond the usual limits of such assays.
The target of another experiment is HLA-A*02:01. Described as above.
In another experiment the target is HLA-B*58:01. Kind of experiment: IEDB peptide-MHC binding, purified MHC/direct/fluorescence; filed as Kd, often an IC50 or EC50 that approximates it; ≥ and ≤ were set here for values at or beyond the usual limits of such assays.
The next experiment deals with HLA-B*57:01. The experiment is described as above.
The next experiment has as its target HLA-B*40:01. Description: IEDB peptide-MHC binding, purified MHC/competitive/radioactivity; filed as Kd, often an IC50 or EC50 that approximates it; ≥ and ≤ were set here for values at or beyond the usual limits of such assays.
Another experiment has as its target HLA-B*44:02. The description is as above.
In a further experiment the target is HLA-A*01:01. The description is as above.
In a further experiment the target is HLA-A*23:01. Described as above. The settings on record: source organism: Mammarenavirus juninense.
A further experiment has as its target HLA-A*29:02. The description is as above.
Another experiment concerns the target HLA-A*26:01. The description is as above.
A further experiment has as its target HLA-A*24:02. The description is as above. The conditions noted are these: source organism: Mammarenavirus juninense.
The target of the next experiment is HLA-A*30:02. Described as above.
In the next experiment the target is HLA-A*30:01. The description is as above.
Another experiment deals with HLA-A*32:01. Described as above.
The target of the next experiment is HLA-B*44:03. Described as above.
Experiment [1] has as its target HLA-B*15:01. Described as above.
In another experiment the target is HLA-B*07:02. Description: IEDB peptide-MHC binding, purified MHC/direct/fluorescence; filed as Kd, often an IC50 or EC50 that approximates it; ≥ and ≤ were set here for values at or beyond the usual limits of such assays. The settings on record: source organism: Orthohantavirus dobravaense.
The next experiment addresses HLA-B*51:01. Kind of experiment: IEDB peptide-MHC binding, purified MHC/competitive/fluorescence; filed as Kd, often an IC50 or EC50 that approximates it; ≥ and ≤ were set here for values at or beyond the usual limits of such assays. The conditions noted are these: source organism: Kurkino virus.
A further experiment addresses HLA-A*02:06. Description: IEDB peptide-MHC binding, purified MHC/competitive/radioactivity; filed as Kd, often an IC50 or EC50 that approximates it; ≥ and ≤ were set here for values at or beyond the usual limits of such assays.
Experiment [2] has as its target HLA-B*15:01. Description: IEDB peptide-MHC binding, purified MHC/competitive/fluorescence; filed as Kd, often an IC50 or EC50 that approximates it; ≥ and ≤ were set here for values at or beyond the usual limits of such assays. The settings on record: source organism: Human immunodeficiency virus 1.
Another experiment addresses HLA-A*02:03. Kind of experiment: IEDB peptide-MHC binding, purified MHC/competitive/radioactivity; filed as Kd, often an IC50 or EC50 that approximates it; ≥ and ≤ were set here for values at or beyond the usual limits of such assays.
For the next experiment, the target named is HLA-A*02:02. The experiment is described as above.
The mark [3] stands for this setting: source organism: Dengue virus 4 Philippines/H241/1956.
[4] abbreviates: source organism: Orthohantavirus dobravaense.
Where [5] appears, read: source organism: Mammarenavirus juninense.
The mark [6] stands for this setting: source organism: Dengue virus 2 Jamaica/1409/1983.
Where [7] appears, read: source organism: Dengue virus 1 Brazil/97-11/1997.
The mark [8] stands for this setting: source organism: Dengue virus 3 Singapore/8120/1995.
Where [9] appears, read: source organism: Vaccinia virus WR.
[10] abbreviates: source organism: Mammarenavirus guanaritoense.
Where [11] appears, read: source organism: Hepatitis C virus (isolate BK).
[12] abbreviates: source organism: Vibrio vulnificus YJ016.

Take ITIAVASGL: the Kd in the experiment with HLA-A*68:02 (source organism: Dengue virus 4 Dominica/814669/1981) was 31.1 nM.
In the case of ITPRSPSVEV, in the experiment with HLA-A*68:02 (setting [3]), the Kd stood at 575 nM.
Consider ITQLMPFGC, for which the Kd in the experiment with HLA-A*02:01 (source organism: Homo sapiens) was 6290 nM.
KALIATATW: the Kd stood at 12.5 nM with HLA-B*58:01 (setting [4]) and 25.3 nM with HLA-B*57:01 (setting [4]).
As for KEKVVGRII, in the experiment with HLA-B*40:01 (setting [3]), the Kd was 2860 nM.
Turning to KEVSETQHG, in the experiment with HLA-B*44:02 (source organism: Dengue virus 3 Martinique/1243/1999), the Kd stood at 6770 nM.
For LCLSGDGWPY, the Kd was 1030 nM with HLA-A*01:01 (setting [5]); at least 70000 nM with HLA-A*23:01; 148 nM with HLA-A*29:02 (setting [5]); at least 69700 nM in the experiment with HLA-A*26:01 (setting [5]); at least 70300 nM with HLA-A*24:02; 1460 nM with HLA-A*30:02 (setting [5]). For the same sequence, the results for the Kd in the experiment with HLA-A*30:01 (setting [5]) and in the experiment with HLA-A*32:01 (setting [5]) were at least 55600 nM and 16900 nM, respectively.
For the sequence LEPPFGDSYI, the Kd in the experiment with HLA-B*40:01 (setting [3]) is 6420 nM.
For LERAADVKW, the values for the Kd with HLA-B*44:02 (setting [6]) and with HLA-B*44:03 (setting [6]) were 130 nM and 214 nM, respectively.
Regarding LMTGTLAVF, the Kd in the experiment with HLA-B*15:01 [1] (setting [7]) was found to be 0.4 nM.
LPTRCRLEI: the Kd was 3.9 nM in the experiment with HLA-B*07:02 and at least 20000 nM in the experiment with HLA-B*51:01.
For the sequence LTAAVLLLV, the Kd with HLA-A*01:01 (setting [8]) came out at 16700 nM; with HLA-A*02:06 (setting [8]) it was 120 nM; with HLA-A*68:02 (setting [8]), 1.36 nM.
As to LTAIANQAAI, the Kd worked out at 10200 nM with HLA-A*01:01 (setting [7]) and 22.9 nM with HLA-A*68:02 (setting [7]).
Sequence LVGKLNWASQIY displayed a Kd with HLA-B*15:01 [2] of 2210 nM.
Take MAVGMVSILA: the Kd with HLA-A*68:02 (setting [6]) was found to be 3.29 nM.
Regarding MEDKTHVSSW, the Kd was determined as 82.3 nM with HLA-B*44:02 (setting [7]) and 111 nM with HLA-B*44:03 (setting [7]).
As for MLNTYGEGF, the Kd with HLA-B*15:01 [1] (setting [9]) was 2.25 nM.
Consider MMLVPLITV, for which the Kd in the experiment with HLA-A*02:03 (setting [9]) is at least 52100 nM; with HLA-A*02:02 (setting [9]) it was 1020 nM; with HLA-A*02:06 (setting [9]), at least 77100 nM; in the experiment with HLA-A*68:02 (setting [9]) it was 5160 nM.
As to MSTYGWNLV, the Kd came to 8500 nM in the experiment with HLA-A*01:01 (setting [6]) and 11.9 nM with HLA-A*68:02 (setting [6]).
Regarding NMALKKIREL, in the experiment with HLA-A*68:02 (source organism: Homo sapiens), the Kd is at least 60000 nM.
As to PLEGSEDRII, the values for the Kd with HLA-A*02:01 (source organism: Homo sapiens) and with HLA-A*68:02 (source organism: Homo sapiens) were at least 70300 nM and at least 65200 nM, respectively.
Turning to QIHLAIMAV, the Kd with HLA-A*68:02 (setting [3]) worked out at 287 nM.
Regarding SVSGTFVAEF, the Kd in the experiment with HLA-A*01:01 (setting [10]) is at least 45200 nM; in the experiment with HLA-A*29:02 (setting [10]) it was 9060 nM; with HLA-A*26:01 (setting [10]) it was 3070 nM; with HLA-A*30:02 (setting [10]), 7910 nM; in the experiment with HLA-A*30:01 (setting [10]), at least 40000 nM; with HLA-A*32:01 (setting [10]), 4410 nM.
For the sequence TLITGNMSF, the Kd in the experiment with HLA-B*15:01 [1] (setting [6]) is 91.1 nM.
For VEDYGFGIF, the Kd with HLA-B*40:01 (setting [7]) is 388 nM.
As to VEMGEAAAI, the Kd in the experiment with HLA-B*44:02 (setting [3]) came out at 12.9 nM; with HLA-B*44:03 (setting [3]), 27.7 nM; with HLA-B*40:01 (setting [3]), 134 nM.
Consider VLTDFKTWL, for which the Kd in the experiment with HLA-A*02:03 (setting [11]) worked out at 7.3 nM; with HLA-A*02:02 (setting [11]) it was 1.56 nM; with HLA-A*02:06 (setting [11]), 140 nM; in the experiment with HLA-A*02:01 (setting [11]) it was 4.06 nM; in the experiment with HLA-A*68:02 (setting [11]), 2300 nM.
The sequence VSGKLIHEW returned a Kd with HLA-B*57:01 (source organism: dengue virus type 3) of 43.5 nM.
WELVDKERAL: in the experiment with HLA-B*40:01 (setting [3]), the Kd is 24 nM.
For the sequence WMSPTYQSW, the Kd amounted to 8.3 nM with HLA-B*58:01 (setting [12]) and 62.4 nM in the experiment with HLA-B*57:01 (setting [12]).
On to YACKQILHG, for which the Kd in the experiment with HLA-B*15:01 [1] (setting [9]) was 2270 nM.
Still for that read-out and setting: then YMATTILEM, with 2.17 nM.

Broadly, the Kd is the free concentration of one partner at which half of the binding sites on the other are occupied at equilibrium, for simple one-to-one binding.
